Assay: yeast display, Sf9 membrane polyspecificity reagent, FACS + sequencing; frameworks hold sequencing errors
Method in brief: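 Galactose-induced (36–48 hours) yeast carrying a synthetic nanobody display library were exposed to 10% biotinylated, detergent-solubilized Sf9 membrane reagent at 4 °C for 1 hour. FACS followed streptavidin microbead enrichment, using low and high (top ~1%) gates for expression (anti-HA) and reagent binding (streptavidin). Colony PCR, MiSeq 2 × 250 sequencing and CDR-length filtering followed. Labels for polyreactivity reflect the gate of origin.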

Sequence	polyreactivity (PSR sort gate)
QVQLVESGGGLVQAGGSLRLSCAASGVIFRRYAMGWYREAPGKERELVAAMSSSGGRTTYADSVNGRFTISRDNAKNTVYIQMNSLKPEDTAVYYCNADLWPGNHDGYWGQGTQVTVSS	low polyreactivity
QVQLVESGGGLVQAGGSLRLSCAASGIILPYYVMGWYRQAPGKEREFVADITWSGGSTYYADSVKARFTISRDNAKNTVYLQMNSLKPEDTAVYYCAAEGQWYYFFDMDYWGQGTQVTVSS	high polyreactivity
QVQLVESGGGLVQAGGSLRLTCAASGRIFKYYAMGWYRQAPGKEREFVADISRRGGSTYYADSVKGRFTISRDNAKNTVYLQMNSLKPEDTAVYYCAAQSGYIMDYWGQGTQVTVSS	high polyreactivity
QVQLVESGGGLDQAGGSLRLSCAASGSIFTDNAMGWYRQAPGKERELVASITIAGSTKYADSVKGRFTISRDNAKKTVYLQMNSLKPEDTAVYYCNAEASDLHDYWGQGTQVTVSS	low polyreactivity
QDQLVESGGGLVQAGGSLRLSCAASGSIFRVYVMGWYRQAPGKERELVAAITSSDGSTYYADSVKGRFTISRDNAKNTVYLQMNSLKPEDTAVYYCNAEFYSPRVVVPRYWYPGDYWGQGTQVTVSS	low polyreactivity
QVQIVESGGGLVQAGGSLRLSCAASGRTFWSYAMVWYRPAPGKEWELVATIKDSDGSTYADSVKGRFKISRDNAKNTVYLQMNSLKPEDTAVYYWIAKTRAGYYFGYGYWGQVTQVTVSS	low polyreactivity
QEQLVESGGGLVQAGGSLRLICADSGRTLVYYGMGWYRQAPGKERELVAAISGSGGRTYYADSVKGRFTISRDNAKNTVYLQMNSLKPEDTAVYYCAALCRSYPAKYASYDYCGQGTQVTVSS	high polyreactivity
QVQLVESGGGLVQAGGSLRLSCAASGRIFNIYAMGWYRQAPGKERELVAAIRWNGGSTYYADSVKGRFTISRDNAKNTVYLQMNSLKPEDTAVYYCAARHPLYRVQHEYWGQGTQVTVSS	low polyreactivity
QVQLVESGGGLVQAGGSLRLSCAASGRILPWYAMGWYRQAPGKERELVAGISSNGGSTYYADSVKGRFTISRDNAKNTVYLQMNSLKPEDSAVYYCAALFWYWRHYPSDYWGQGTQVTVSS	high polyreactivity
QVQLVESCVGLVQAGGSLRLSCAASGRIFSRYAMGWYRQAPGKERELVADITWSGGRPYYADSVKGRFTISRDNAKNTVYLQMNSLKPEDTAVYDCAATGGFSWSRDYWGLGTQVTVSS	low polyreactivity
QVQLVESGRGLVQAGGSLRLSCAPSGIIFTSYAMGWYRQAPGKESEFVAAITRSGSRTYYADSVKGRFTISRDNAKNTVYLQMNRLKPEDTAVYYCAARTFHDSSDSYAGGYWGQGTQVTVSS	low polyreactivity
QVQLVESRGGLVQAGGSLRISCPDSGFTFTKNAMGWYRQAPGKERELVAAISRGRGRTYYADSVKGRFTISRDNAKNTVYFQMNSLIPEDTAVYYCNVDKVGPGYDYWGQGTQVTVSS	high polyreactivity
QVQLVESGGGLVQAGGSLRLSCAASGLIFGSNAMGWYRQAPGKERELVAAISSGGTTKYADSVKGRFTISRDNAKNTVYLQMNSLKPEDTAVYYCAAQDYSYTTRFQDDYWGQGTQVTVSS	low polyreactivity
QVQLVESGGGVVQAGGSIRLSCAASGRIFTSNAMGWNRQAPGKETELDAAISGSGGRTYYADSVKGRFTISRDNAKNTVYLQMNSLKPEDTAVYDCNARYYTSGIAYSYYYWGQGTQGTVSS	high polyreactivity
QVQLVESGGGLVQAGGTLRLSCAASGFIISRNAMGWYRQAPRKERELVAAITWPGGTTYYADSVKGRFTISRDNAKNTVYLQMISLKPEDTAVYYSAADEYGPHTFSPEYDSWGQGTQVTVSS	low polyreactivity
QVQLVQSGGGLVQAGGSLRLSCAASGSTIVTNAMGWYRQAPGKERELVAANTSVGSTYYADSVKGRFTISRDNAKNTVYLQMNSLKPEDTAVYYCNVVYRDQYNYWGQGTQVTVSS	low polyreactivity
QVQLVESGGGLVQAGGSLRLSCAASGSIFHYYAMGWYRPAPGKERELVAAISWSGGRTYYADSVKGRFTISRDNAKNTVYLQMNSLKPEDTAVYYCAAARGESYEFYSWGQGTQVTVSS	high polyreactivity
QVQLVESGGGLVQAGGSLRLSCAASGRTFWYYTMGWYRQAPGKERELVAAISSGGRTNYADSVKGRFTISRDNAKNTVYLQMNSLKPEDTAVYYCATSRYYKYVERDYWGQGTQVTVSS	high polyreactivity
QVQLVESGGGLVQAGGSLRLSCAASGSTIPYYAMGWYRPAPGKERELVARIRWNGDSTYYADSVKGRFTISRDNAKNTVYLQMNSLKPEDTAVYYCARQGYTLYRTRYRYDYWGQGTQVTASS	high polyreactivity
QVQLVESGGGLVQAGGSLRLSCAASGRTFYHYAMGWYRQAPGKERELVATITSSGGNTYYADSVKGRFTISRDNSKNTVYLQMNSLKPEDTEVYYCAADWFVYQYSFGSSEYYYWGQGTQVTVSS	low polyreactivity
QVQLVESGGGLVQAGGSLRLSCAASGITFPRYAMGWYRQAPGKERELVARITSGGRTNYADSVKGRFTISRDNAKNTVYLQMYSLKPEDTAVYYCNAVGWVRSQVRLGYWGQGTQVTVSS	high polyreactivity
QVQLVESGGGLVQAGGSLRLSCAASGYIFSVNAMGWYRQAPGKERELVAAIRGSGGSTFYADSVKGRFTISRDNAKNTVYLQMNSLKPEDTAVYYCAAYWRGRYDYWGQGTQVTVSS	low polyreactivity

Sequence	polyreactivity (PSR sort gate)
QVQLVESGVGLVQAGGSLRLSCAASGSTYRYAMGWYRQAPGKERELVAAISRSTGSTYYADSVKGRLTISRDNANNTVNLQMNRLKPEDTAVYYCARDVYYRGYKYGYWGQGTQVTVSS	high polyreactivity
QVQLVESGGGLVQAGGSLRLSCAASGSIFDYYAMGWYRQAPGKERELVAAIDSGDITYYADSVKGRFTISRDNAMNTVYLQMNSLKPEETAVYYCAAEGTGYSVGWQYGYWGQGTQVTVSS	low polyreactivity
QVQLVESGGGLVQAGGSLRLSCAASGLIFYDNMGWYRQAPGKERELVAAISSSGGSTSYADSVKGRFTISRDNAKNTVYFLMNSLKPEDTAVYYCAADQYYYWYTHQSIGYDYWGQGTQVTVSS	low polyreactivity
QVQLVESGGGLVQAGGSLRLSCAASGSIFYLYTMGWYRQAPGKERELVASITYSGGTYYADSVKGRFTISRDNAKNTVYLQINSLKPEDTAVYYCNADASYYLDDEYDYWGQGTQVTVSS	low polyreactivity
QVQLVESAGGLVQAGGSLRLSCDASGRIFQRNAMGWYRQEPGKERQFVAAISSRGGTTYYADSVKGRFTISRDNAKNTVYLQMNSLKQEDNAVYYCAAGYVHLYYFHEYYWGQGTQVTVSS	high polyreactivity
QVQLVESGGGSDQAGGSLRLSCAASGSTFQYNVMGWYRQAPRKERELVAAIRQSGSTTYYADSVKGRFTISRDNAKNTVYLQMNSLKPEDTAVYYCAKRYHNWANSRMDYWGQGTQVTVSS	low polyreactivity
QVQLVESGGGLVQAGGSLRLSCAASGSIFKGYAMGWYRQAPGKERELVAAITIDGSTYYADSVKGRFTISRDNAKNTVYLQMNSLKPEDTAVYYCAAVYLWYGSWPLHFAAYDYWGQGTQVTVSS	low polyreactivity
QVQVVESGGGLVQAGGSLRLSCAASGRIFYTNAMGWYRQAPGKERELVAVISWGGDTTYYADSVKGRFTISRDKAKNTVYLQMNSLKPEDTAVYYCNADWGPTYEIYDSWGQGTQVTVSS	low polyreactivity
QVQLVESGGGLVQAGGSLRLSCAASGSTFDYNAMGWYRQAPGKEMELVAAISRGGNTDYADSVKGRFTISRDNAKNTVYLQMNSLKPEDSAVYYCDADALLEWFDVAYFAYEYWGQGTQVTVSS	low polyreactivity
QVQLVESGGGLVQAGGSLRLSCAASGFTFSYYAMGWYRQAPGKERELVARISFSGTRTYYADSVKGRFTISRDNAKNTVYLEMNSLKPEDTAVYYCAARFGYVGITARYDYWGQGTQVTVSS	high polyreactivity
QVQLVESGGGLVQAGGSLRLSCAASGRTLPAYAMGWYRQAPGKERELVAAISWGGGSTYYADSVKGRFTISRDNAKKTVYLQMNSLKPEDTAVYYCAVAGYWFAVAEYDYWGQGTQVTVSS	low polyreactivity
QVQLVASGGGLVQAGGSLRLSCAASGGTFFYNAKGWYRQAPGKERELVAAINGGTSTNYADSVKGRFTISRDNAKNTDYLQRNSLKPEDTAVYYCAAVYRRLGRSDWYDYWGQGTQVTVSS	low polyreactivity
QVQLVESGGGLVQAGGSLRLSCAASGNIFYINAMGWYRQAPGKERELVAAISSGGRTNYADSVKGRFTISRDNAKNTVYLQMNSLKPEDTAVYYCGAEGPEIKYYYWGQGTQVTVSL	low polyreactivity
QVQLVVSGGGLVQAGGSLRLSCAASGGTFQHNTMGWYRQAPGKERELVAAIRWSDGSTYYADSVKGRFTISRDNAKTTVYLQMNSLKPEDTSVYYCNRAYTASYIPRVGFWGQGTQVTVSS	high polyreactivity
QVQLVESGGGLVQAGGSLRLSCAASGGTFEYYAMGWDRQAPGKESELVAGITGGGVSTYYADSVKGRFTISRDNAKNPVYLQKNSLKPEDTAVYYSAAAYYQDNFWWYYYWGQGTQVNVSS	high polyreactivity
QVKLVDSGGGLVQAGGSLRLSCAASGRIAVNAMGWYRQAPGKERELVAAISVSGGSTNYADSVKGRFTISRDNAKNTVYLQMNSLKPEDTAVYYCAARAFDPILRNDYSGQGTQVTVSS	low polyreactivity
QVQLVESGGGLVQAGGSLRLSCAPSGFSFRQYAMGWYRQAPGKERELVAAISSSGGRTYYADSVKGRCTISRDNAKNTVYLQMNSLKPEDSAVYYCNARAWLRGEYGEGYWGQGTQVTVSS	high polyreactivity
QVQLVESGGGLVQAGCSLRLSCGASGSIFAYYDMGWYREAPGTEREVVAAITTRDDDTYYADSVKGRFTISRDTAKNPVYLQMNSLKPEDTAVYYCAAAWWDYGNGKYDYWGQGTQVTVSS	low polyreactivity
QVQLVESGGGLVQAGGSLRLSCAASGFTFPYYAMGWYRQAPGKERELVAAISRSGTSTNYADSVKGRFTISRDNAKNTVYLQMNSLKPEDTAVYYCATARRQGKVIQYYYWGQGTQVTVSS	high polyreactivity
QVQLVESGGGLVQAGGSLRLSCAASGRIFRWYAMGWYRQAPGKEREIVAAITSSGGSTYYADSVKGRFTISRDNAKNTVYLQMNSLKPEDTAFYYCAALLYLGGSYSRGYYWGQGTQVTVSS	high polyreactivity
QVQLVESGGGLVQAGGSLRLSCAASGFTFVYNAMGWYRQAPGKERELVAAITSGGNTYYADSVKGRFTISRDNAKNTVYLQMNSLKPEDTAVYYCAKVQNGQWSTSRVPGDYQYNYWGQGTQVTVSS	high polyreactivity

Source: the nanobody polyreactivity screen of Harvey et al. (2022)
